The record followed here is paper PMC13374049 (Cell host & microbe, 2026).

For the experiment, the target named is full-length Measles virus hemagglutinin (H) on transfected HEK293T cells (Measles virus, strain IC323, UniProt Q786F2). The experiment can be described thus: flow cytometry on cells.
Sequence of full-length Measles virus hemagglutinin (H) on transfected HEK293T cells (Q786F2 whole entry): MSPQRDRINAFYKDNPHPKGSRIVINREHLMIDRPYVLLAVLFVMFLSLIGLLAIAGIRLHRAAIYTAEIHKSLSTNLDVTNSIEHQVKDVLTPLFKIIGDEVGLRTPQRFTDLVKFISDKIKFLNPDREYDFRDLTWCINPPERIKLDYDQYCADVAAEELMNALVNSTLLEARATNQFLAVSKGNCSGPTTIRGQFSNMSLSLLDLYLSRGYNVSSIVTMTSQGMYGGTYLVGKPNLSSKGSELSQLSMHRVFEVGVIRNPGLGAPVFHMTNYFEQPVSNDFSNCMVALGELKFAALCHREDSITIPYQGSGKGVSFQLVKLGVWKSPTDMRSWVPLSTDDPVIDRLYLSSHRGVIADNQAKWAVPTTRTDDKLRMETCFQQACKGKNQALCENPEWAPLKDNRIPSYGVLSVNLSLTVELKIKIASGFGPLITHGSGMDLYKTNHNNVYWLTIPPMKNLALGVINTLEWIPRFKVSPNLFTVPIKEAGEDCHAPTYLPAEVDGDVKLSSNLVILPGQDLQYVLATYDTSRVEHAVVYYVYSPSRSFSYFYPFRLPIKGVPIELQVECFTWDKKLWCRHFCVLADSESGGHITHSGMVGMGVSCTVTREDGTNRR

B1: human anti-MeV H monoclonal antibody 1C02 (IgG1) (antibody, V domains shown)
VH: EVQLLESGAEVKKPGSSVKVSCKASGGTFSSYGISWVRQAPGQGLEWMGGIIPIFGTANYAQKFRGRVTITADKSTSTAYMELSSLRSEDTAVYYCARERITVAGINYYYGMDVWGQGTTVTVSS
VL: RPVLTQPPSVSGAPGQRVTISCTGSSSNIGAGYDVHWYQQLPGTAPKLLIYGDSNRPSGVPDRFSGSKSGTSASLAITGLQAEDEADYYCQSYDSSLSGVVFGGGTKLTVL
For B1, the binding result is listed as “binds”.

B2: human anti-MeV H monoclonal antibody 4D08 (IgG1) (antibody, V domains shown)
VH: QMQLVQSGAEVKKPGASVKVSCKASGYTFTSYAMHWVRQAPGQRLEWMGWINAGNGKTEYSQRFQGRVTITRDTSASTVYMELNSLRSEDTAVYFCARDAYDFWSGYGNWGSNYYYFYMDAWGKGTTVTVSS
VL: EIVMTQSPPSLSASVGDRVTITCRASQSINYYLNWYQQKPGKAPKLLIYAASGLQSGVPSRFSGSGSGTDFTLTISSLQPEDLATYYCQQTYSTPVTFGQGTKLEII
Regarding B2, the binding result is “binds”.
